{
  "source": "paper doi:10.1101/2022.06.29.498105",
  "about": "(bioRxiv, 2022)",
  "proteins": {"B1": {"name": "TRIM21 RING domain (domain or fragment)", "chain": "GSHMASAARLTMMWEEVTCPICLDPFVEPVSIECGHSFCQECISQVGKGGGSVCPVCRQRFLLKNLRPNRQLANMVNNLKEISQEARE"}},
  "molecular_target": "the molecule itself",
  "experiment": "crystal structure",
  "data": [
    {"protein": "B1", "values": [
      {"measurement": "stoichiometry N", "value": 2}
    ]}
  ]
}
